Patent US7709002 (US Dept. of Health and Human Services, dated 2010)

How the values were obtained:
HLA-A2 [1] = biological target: HLA-A2 (human); assay: T2 bioassay (peptide 50 µg/ml + b2m 3 µg/ml, overnight), flow cytometry, stained with pan class I MAb W6/32
HLA-A2 [2] = biological target: HLA-A2 (human); assay: T2 bioassay (peptide 50 µg/ml + b2m 3 µg/ml, overnight), flow cytometry, stained with anti-HLA-A2 MAb

- MFI (HLA-A2 [1]): 523
- MFI (HLA-A2 [2]): 285
B1: wild-type ras5-14(Gly12) peptide (peptide)
peptide: KLVVVGAGGV
notes: also called ras5-14(G12); normal ras 10-mer
